The source of these data is patent US20210115102.

ALU30-9, sequence (chain, as listed by the source): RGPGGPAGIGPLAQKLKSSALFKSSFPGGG
ALU30-8, sequence (chain, as listed by the source): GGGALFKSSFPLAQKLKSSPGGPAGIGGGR
ALU30-6, sequence (chain, as listed by the source): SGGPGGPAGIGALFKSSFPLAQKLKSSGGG
ALU30-2, sequence (chain, as listed by the source): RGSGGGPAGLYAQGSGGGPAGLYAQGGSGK
Factor Xa, recombinant human, sequence (chain): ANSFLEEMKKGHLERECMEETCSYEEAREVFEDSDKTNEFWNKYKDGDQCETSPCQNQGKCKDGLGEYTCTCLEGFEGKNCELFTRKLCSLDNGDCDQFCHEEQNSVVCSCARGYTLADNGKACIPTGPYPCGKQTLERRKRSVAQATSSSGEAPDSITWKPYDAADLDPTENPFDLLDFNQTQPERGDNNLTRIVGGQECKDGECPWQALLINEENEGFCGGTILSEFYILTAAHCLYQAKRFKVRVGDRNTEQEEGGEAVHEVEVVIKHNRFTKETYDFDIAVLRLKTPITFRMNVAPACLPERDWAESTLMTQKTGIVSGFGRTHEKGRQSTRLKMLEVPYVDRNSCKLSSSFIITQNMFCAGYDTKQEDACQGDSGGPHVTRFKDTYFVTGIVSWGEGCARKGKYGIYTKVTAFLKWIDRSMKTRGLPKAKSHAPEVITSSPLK
ALU30-13, sequence (chain, as listed by the source): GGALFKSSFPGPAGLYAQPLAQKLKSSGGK
ALU30-19, sequence (chain, as listed by the source): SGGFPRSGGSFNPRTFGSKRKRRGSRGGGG
ALU30-18, sequence (chain, as listed by the source): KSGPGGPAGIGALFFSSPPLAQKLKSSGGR
ALU30-17, sequence (chain, as listed by the source): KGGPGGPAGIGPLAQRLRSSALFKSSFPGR
ALU30-10, sequence (chain, as listed by the source): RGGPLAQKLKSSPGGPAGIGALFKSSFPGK
ALU30-14, sequence (chain, as listed by the source): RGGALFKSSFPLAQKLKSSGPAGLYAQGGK
ALU30-12, sequence (chain, as listed by the source): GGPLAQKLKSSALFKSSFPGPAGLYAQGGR
MMP-9, recombinant human, sequence (chain, as listed by the source): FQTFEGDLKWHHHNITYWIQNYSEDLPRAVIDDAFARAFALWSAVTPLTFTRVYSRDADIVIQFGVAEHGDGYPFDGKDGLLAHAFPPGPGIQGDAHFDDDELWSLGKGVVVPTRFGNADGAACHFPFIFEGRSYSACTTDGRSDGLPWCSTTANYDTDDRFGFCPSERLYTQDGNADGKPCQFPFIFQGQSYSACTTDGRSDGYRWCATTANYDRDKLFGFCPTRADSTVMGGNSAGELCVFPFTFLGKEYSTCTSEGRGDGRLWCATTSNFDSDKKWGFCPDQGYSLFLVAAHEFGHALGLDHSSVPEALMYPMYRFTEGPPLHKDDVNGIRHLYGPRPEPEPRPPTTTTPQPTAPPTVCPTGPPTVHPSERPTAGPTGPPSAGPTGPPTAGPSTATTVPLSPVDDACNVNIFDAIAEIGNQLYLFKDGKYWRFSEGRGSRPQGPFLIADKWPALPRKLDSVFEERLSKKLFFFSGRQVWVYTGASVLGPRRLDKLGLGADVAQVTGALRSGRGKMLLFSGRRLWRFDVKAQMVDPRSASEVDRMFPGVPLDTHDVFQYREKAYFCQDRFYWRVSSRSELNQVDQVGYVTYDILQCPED
ALU30-5, sequence (chain, as listed by the source): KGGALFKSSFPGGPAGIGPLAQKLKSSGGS
ALU30-1, sequence (chain, as listed by the source): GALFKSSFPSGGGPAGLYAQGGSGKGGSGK
ALU30-7, sequence (chain, as listed by the source): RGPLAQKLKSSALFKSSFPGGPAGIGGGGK
ALU30-15, sequence (chain, as listed by the source): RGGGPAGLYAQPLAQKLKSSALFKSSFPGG
Hepsin, recombinant human, sequence (chain, as listed by the source): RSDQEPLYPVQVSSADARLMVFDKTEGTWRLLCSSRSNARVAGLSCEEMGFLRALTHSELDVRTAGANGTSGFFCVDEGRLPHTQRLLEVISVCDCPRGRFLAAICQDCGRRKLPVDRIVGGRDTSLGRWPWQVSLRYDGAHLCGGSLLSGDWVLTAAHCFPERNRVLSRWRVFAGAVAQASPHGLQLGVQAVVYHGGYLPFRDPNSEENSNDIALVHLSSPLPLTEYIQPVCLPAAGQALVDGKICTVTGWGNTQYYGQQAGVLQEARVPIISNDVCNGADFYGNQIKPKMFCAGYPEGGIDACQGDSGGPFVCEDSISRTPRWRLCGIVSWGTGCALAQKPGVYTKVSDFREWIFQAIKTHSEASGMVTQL
ALU30-3, sequence (chain, as listed by the source): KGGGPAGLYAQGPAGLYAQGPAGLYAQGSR
ALU30-16, sequence (chain, as listed by the source): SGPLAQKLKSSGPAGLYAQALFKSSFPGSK
ALU30-4, sequence (chain, as listed by the source): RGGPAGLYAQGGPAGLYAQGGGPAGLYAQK
ALU30-11, sequence (chain, as listed by the source): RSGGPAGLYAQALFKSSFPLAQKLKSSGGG

As to Thrombin, recombinant human, the “30-mer substrate degradation (MSP-MS)” value with ALU30-4 was “Alu30-4 was also an efficient substrate”; in the series with ALU30-12, “the peptides Alu30-12, Alu30-13 and Alu30-15, with MMP14_1 motifs in combination with ADAM17_2 and CTSL1_1, were cleaved at lower efficiency by thrombin”; in the series on ALU30-16, “Thrombin showed higher activity than Factor Xa, and it cleaved each of the 30-mer peptides”; in the series on ALU30-14 it was “Thrombin showed higher activity than Factor Xa, and it cleaved each of the 30-mer peptides”; in the series with ALU30-6, “the CTSL1_2 motif had lower cleavage activity than did the CTSL1_1 motif (peptides Alu30-18 vs Alu30-6)”; with ALU30-15, “the peptides Alu30-12, Alu30-13 and Alu30-15, with MMP14_1 motifs in combination with ADAM17_2 and CTSL1_1, were cleaved at lower efficiency by thrombin”. Further, the “30-mer substrate degradation (MSP-MS)” value in the series with ALU30-8 is “Thrombin showed higher activity than Factor Xa, and it cleaved each of the 30-mer peptides”; in the series with ALU30-5, “Thrombin showed higher activity than Factor Xa, and it cleaved each of the 30-mer peptides”; in the series with ALU30-11, “Thrombin showed higher activity than Factor Xa, and it cleaved each of the 30-mer peptides”; with ALU30-2, “The peptide Alu30-2, bearing two MMP14_1 motifs, was less susceptible to thrombin”; with ALU30-9, “The two alternate ADAM17 motifs were cleaved with similar efficiency (peptides Alu30-17 vs Alu30-9)”; with ALU30-17 it was “The two alternate ADAM17 motifs were cleaved with similar efficiency (peptides Alu30-17 vs Alu30-9)”. Besides, the “30-mer substrate degradation (MSP-MS)” value in the series with ALU30-3 is “The peptides Alu30-1 and Alu30-3 were the most rapidly cleaved in the library”; in the series on ALU30-10 it was “Thrombin showed higher activity than Factor Xa, and it cleaved each of the 30-mer peptides”; in the series on ALU30-13, “the peptides Alu30-12, Alu30-13 and Alu30-15, with MMP14_1 motifs in combination with ADAM17_2 and CTSL1_1, were cleaved at lower efficiency by thrombin”; with ALU30-19, “Thrombin showed higher activity than Factor Xa, and it cleaved each of the 30-mer peptides”; with ALU30-1 it was “The peptides Alu30-1 and Alu30-3 were the most rapidly cleaved in the library”; in the series on ALU30-18 it was “the CTSL1_2 motif had lower cleavage activity than did the CTSL1_1 motif (peptides Alu30-18 vs Alu30-6)”. Besides, in the series with ALU30-7, the “30-mer substrate degradation (MSP-MS)” value was “Thrombin showed higher activity than Factor Xa, and it cleaved each of the 30-mer peptides”.
Regarding Factor Xa, recombinant human, the “30-mer substrate degradation (MSP-MS)” value with ALU30-12, in the series on ALU30-16, in the series with ALU30-14, in the series with ALU30-6, in the series with ALU30-15 and in the series on ALU30-8 was “all other peptides bearing a CTSL1_1 motif were cleaved by Factor Xa at either ALF|KSSFP (SEQ ID NO: 198) or ALFKS|SFP (SEQ ID NO: 198)” in each case. Also, the “30-mer substrate degradation (MSP-MS)” value in the series on ALU30-5 is reported as “the only library peptide with significant cleavage was Alu30-5, cleaved at the CTSL1_1 motif ALFKS|SFP (SEQ ID NO: 198), upstream of a FAPα_1 motif”; in the series on ALU30-11, “all other peptides bearing a CTSL1_1 motif were cleaved by Factor Xa at either ALF|KSSFP (SEQ ID NO: 198) or ALFKS|SFP (SEQ ID NO: 198)”; in the series on ALU30-9, “all other peptides bearing a CTSL1_1 motif were cleaved by Factor Xa at either ALF|KSSFP (SEQ ID NO: 198) or ALFKS|SFP (SEQ ID NO: 198)”; with ALU30-17, “all other peptides bearing a CTSL1_1 motif were cleaved by Factor Xa at either ALF|KSSFP (SEQ ID NO: 198) or ALFKS|SFP (SEQ ID NO: 198)”; in the series on ALU30-10, “all other peptides bearing a CTSL1_1 motif were cleaved by Factor Xa at either ALF|KSSFP (SEQ ID NO: 198) or ALFKS|SFP (SEQ ID NO: 198)”; in the series with ALU30-13, “all other peptides bearing a CTSL1_1 motif were cleaved by Factor Xa at either ALF|KSSFP (SEQ ID NO: 198) or ALFKS|SFP (SEQ ID NO: 198)”. The “30-mer substrate degradation (MSP-MS)” value in the series with ALU30-19 is “Peptide Alu30-19 with this motif was completely degraded before the 5 min time point”; in the series on ALU30-1, “all other peptides bearing a CTSL1_1 motif were cleaved by Factor Xa at either ALF|KSSFP (SEQ ID NO: 198) or ALFKS|SFP (SEQ ID NO: 198)”; with ALU30-18, “The peptide with the motif CTSL1_2 was cleaved at the lowest efficiency”; with ALU30-7 it was “all other peptides bearing a CTSL1_1 motif were cleaved by Factor Xa at either ALF|KSSFP (SEQ ID NO: 198) or ALFKS|SFP (SEQ ID NO: 198)”.
For the substance Hepsin, recombinant human, the apparent catalytic efficiency result is “The authentic peptide Alu30-19, as well as the top cleaved peptides Alu30-8,-9, -12, and -14 all had apparent catalytic efficiencies on the same order of 10^5 M^-1s^-1” in the series on ALU30-12; “The authentic peptide Alu30-19, as well as the top cleaved peptides Alu30-8,-9, -12, and -14 all had apparent catalytic efficiencies on the same order of 10^5 M^-1s^-1” in the series on ALU30-14; “The authentic peptide Alu30-19, as well as the top cleaved peptides Alu30-8,-9, -12, and -14 all had apparent catalytic efficiencies on the same order of 10^5 M^-1s^-1” in the series on ALU30-8; “The authentic peptide Alu30-19, as well as the top cleaved peptides Alu30-8,-9, -12, and -14 all had apparent catalytic efficiencies on the same order of 10^5 M^-1s^-1” in the series with ALU30-9; “The authentic peptide Alu30-19, as well as the top cleaved peptides Alu30-8,-9, -12, and -14 all had apparent catalytic efficiencies on the same order of 10^5 M^-1s^-1” in the series with ALU30-19. Further, in the series on ALU30-15, the “cleavage efficiency of 30-mer library peptides” value is given as “it had slightly higher hepsin susceptibility”. The “30-mer substrate degradation (MSP-MS)” value in the series with ALU30-17 was “The ADAM17_1 motif was less efficiently cleaved than ADAM17_2”; in the series with ALU30-19, “Alu30-19 was cleaved at all three motifs within the first 15 min of the reaction”; in the series with ALU30-18, “the alternate CTSL1_2 motif was also cleaved at a much slower rate than CTSL1_1”.
As for MMP-9, recombinant human, the “30-mer substrate degradation (MSP-MS)” value in the series with ALU30-4 is listed as “The most efficient MMP9 substrates were those that bore three-repeats of the MMP14_1 motif”; in the series with ALU30-12, “The slowest peptides bear the MMP14_1 motif near the C-terminus of the 30-mer peptide”; in the series with ALU30-14 it was “The slowest peptides bear the MMP14_1 motif near the C-terminus of the 30-mer peptide”; in the series on ALU30-6 it was “the FAPα_1 motif was also cleaved within the peptides bearing FAPα_1 directly followed by the CTSL1_1 motif at PGGPAG|GALF (SEQ ID NO: 247); these were lower efficiency cleavages”; with ALU30-15, “The next most efficient substrates contained the pair of motifs where MMP14_1 was followed directly by ADAM17_2”; in the series with ALU30-8, “The FAPα_1 motif was not cleaved by MMP9, however, when followed either by the ADAM17_2 motif or the spacing residues GG”. Also, the “30-mer substrate degradation (MSP-MS)” value is “The FAPα_1 motif was not cleaved by MMP9, however, when followed either by the ADAM17_2 motif or the spacing residues GG” in the series with ALU30-5; “The single or double MMP14_1 motif-bearing peptides were next in the order” in the series on ALU30-2; “The FAPα_1 motif was not cleaved by MMP9, however, when followed either by the ADAM17_2 motif or the spacing residues GG” with ALU30-9; “The most efficient MMP9 substrates were those that bore three-repeats of the MMP14_1 motif” in the series on ALU30-3; “the FAPα_1 motif was also cleaved within the peptides bearing FAPα_1 directly followed by the CTSL1_1 motif at PGGPAG|GALF (SEQ ID NO: 247); these were lower efficiency cleavages” in the series on ALU30-10; “The next most efficient substrates contained the pair of motifs where MMP14_1 was followed directly by ADAM17_2” with ALU30-13. In addition, the “30-mer substrate degradation (MSP-MS)” value in the series with ALU30-1 is listed as “The single or double MMP14_1 motif-bearing peptides were next in the order”; in the series on ALU30-7 it was “The FAPα_1 motif was not cleaved by MMP9, however, when followed either by the ADAM17_2 motif or the spacing residues GG”. The “product formation at individual bonds (MSP-MS)” value in the series with ALU30-2 and in the series with ALU30-1 was “the specific cleavage of the Alu30-2 peptide was more efficient than the Alu30-1 peptide” each time.
